Measurements published in article PMC6916501 (The Journal of Biological Chemistry, 2019).

Assays:
[1] = target: T1, WT β-catenin_(41–49) peptide on HLA-A3 of T2A3 cells (Homo sapiens, HLA-A*03:01, UniProt P04439;P61769); assay: flow cytometry on cells; T2A3 cells pulsed with peptide and β2-microglobulin, stained with ~1 × 10^10 phage for 1 h on ice; anti-M13 and PE anti-rabbit; details: partners not purified
T1 construct: HLA-A3 stably transfected in T2A3 cells; human β2-microglobulin (ProSpec) added at pulsing; β-catenin amino acids 41-49; also called WT peptide-pulsed T2A3 cells; copies: + +

[2] = target: T1, WT β-catenin_(41–49) peptide on HLA-A3 …; assay: flow cytometry on cells; T2A3 cells pulsed with peptide and β2-microglobulin, stained with 1 μg scFv in 100 μl for 1 h on ice; PE anti-DYKDDDDK; details: one partner purified

Binder | binding result [1] | binding result [2]
E10 phage clone (scFv displayed on M13 phage) (scFv, V domains shown, scFv from the first library on the humanized 4D5 framework (CDRs L3, H1, H2, H3 varied); source: phage display, amplified in SS320 E. coli with M13K07 helper phage) VH: EVQLVESGGGLVQPGGSLRLSCAASGFNINNTYIHWVRQAPGKGLEWVASIYPTDGYTRYADSVKGRFTISADTSKNTAYLQMNSLRAEDTAVYYCSRTYYSYYSAMDVWGQGTLVTVSS VL: DIQMTQSPSSLSASVGDRVTITCRASQDVNTAVAWYQQKPGKAPKLLIYSASFLYSGVPSRFSGSRSGTDFTLTISSLQPEDFATYYCQQSYYSPPTFGQGTKVEIK | no binding | –
clone 7 phage clone (scFv displayed on M13 phage) (scFv, V domains shown, scFv from the second library on the humanized 4D5 framework (CDRs L2, L3, H1, H2, H3 varied); also called cl; source: phage display, amplified in SS320 E. coli with M13K07 helper phage) VH: EVQLVESGGGLVQPGGSLRLSCAASGFNVWSYGIHWVRQAPGKGLEWVAGVTPDGSYTYYADSVKGRFTISADTSKNTAYLQMNSLRAEDTAVYYCSRSYGWAMDYWGQGTLVTVSS VL: DIQMTQSPSSLSASVGDRVTITCRASQDVNTAVAWYQQKPGKAPKLLIYSASFLYSGVPSRFSGSRSGTDFTLTISSLQPEDFATYYCQQQYAYTPITFGQGTKVEIK | no binding | –
E10 scFv with C-terminal FLAG tag (scFv, V domains shown, as the scFv of m19; source: E. coli, produced by AxioMx) VH: EVQLVESGGGLVQPGGSLRLSCAASGFNINNTYIHWVRQAPGKGLEWVASIYPTDGYTRYADSVKGRFTISADTSKNTAYLQMNSLRAEDTAVYYCSRTYYSYYSAMDVWGQGTLVTVSS VL: DIQMTQSPSSLSASVGDRVTITCRASQDVNTAVAWYQQKPGKAPKLLIYSASFLYSGVPSRFSGSRSGTDFTLTISSLQPEDFATYYCQQSYYSPPTFGQGTKVEIK | – | no binding
clone 7 scFv with C-terminal FLAG tag (scFv, V domains shown, as the scFv of m22; also called cl; source: E. coli, produced by AxioMx) VH: EVQLVESGGGLVQPGGSLRLSCAASGFNVWSYGIHWVRQAPGKGLEWVAGVTPDGSYTYYADSVKGRFTISADTSKNTAYLQMNSLRAEDTAVYYCSRSYGWAMDYWGQGTLVTVSS VL: DIQMTQSPSSLSASVGDRVTITCRASQDVNTAVAWYQQKPGKAPKLLIYSASFLYSGVPSRFSGSRSGTDFTLTISSLQPEDFATYYCQQQYAYTPITFGQGTKVEIK | – | no binding
